Test results: US20180291088A1
“And” between values parts separate entries of the source, which are not always exact repeats. Identical values can stand only once.

B1: EVB166 monoclonal antibody (antibody, V domains shown)
VH: QVQLVQSGAEVKKPGSSVKVSCKTSGGTLSNYAISWVRQAPGQGLEWMGGTIPTLGMSTYAPNFQGRVAITADKSTSTAYMELSSLRSDDTAVYYCATMGSADTSFYFYMDVWGKGTTVTVSS
VL: EIVLTQSPGTLSLSPGERATLSCRASQSVSSSYLAWYQQKPGQAPRLLIYGTSSRATGIPDRFSGSASGTDFTLTISRLEPEDFAVYYCQQYAYSPFTFGPGTKVDIK
B2: EVB165 monoclonal antibody (antibody, V domains shown)
VH: DVQLVESGGGVVQPGGSLKLACVVSGFRFSDYWMSWVRQAPGKGLEWVANIKQDGSGKYYVDSVKGRFTVSRDNAKNSLYLHMTSLGAEDTAVYFCARAAPTGSYTNILVDNVHFDYWGQGILVAVSS
VL: GIQLTQSPGSLSASVGDSVTITCRPNQNIATYINWYQQTPGKAPKLLIYAASILQSGVPSRFSGAGSGTHFTLIISTLQPEDSATYYCQQSYSTPWTFGQGTKVEIK
B3: EVB167 monoclonal antibody (antibody, V domains shown)
VH: AVQLVQSGAEVKKPGTTVKISCKVSGYTFIQEYIHWVQQAPGKGLVWMGLGDPENNETLYSEDFQGRVTMTADTSSDTAYLELRSLTFADTAVYFCTSRKSWWGQGTLVTVAS
VL: ELVLTQSPGTLSLSPGESATLSCRASQSLSSDSVSWFQQKPGQAPRLVIHGTSKRATGIPDRFSGGGSGTDFTLTIARLEPEDFAVYYCQRSGYGMSVTWTFGQGTTVEIK
B4: EVB114 monoclonal antibody (antibody, V domains shown)
VH: EVQLVESGGGLIQPGGSLRLSCAASGFALRMYDMHWVRQTIDKRLEWVSAVGPSGDTYYADSVKGRFAVSRENAKNSLSLQMNSLTAGDTAIYYCVRSDRGVAGLFDSWGQGILVTVSS
VL: DIQMTQSPSSLSASVGDRITITCRASQAFDNYVAWYQQRPGKVPKLLISAASALHAGVPSRFSGSGSGTHFTLTISSLQPEDVATYYCQNYNSAPLTFGGGTKVEIK
B5: EVB100 monoclonal antibody (antibody, V domains shown)
VH: QVQLQESGPGLVKPSDTLSLTCTVSGGSLSSFYWSWIRQPPGKGLEWIGYIYYSGSPNYSPSLESRVTMSVDTTRNQISLKLDSVTAADTAVYYCVRASRSYYWGSYRPTAFDSWGQGTLVTVSS
VL: SYELTQPLSVSVSPGQTAIFTCSGDNLGDKYVCWFQQRPGQSPMLLIYQDNKRPSGIPERFSGSNSGNTATLTISGTQSTDEADYYCQTWDSTVVFGGGTKLTVL

Assays:
[1] = target: EBOV GP on pseudotyped lentivirus particles (EBOV , Mayinga) (UniProt Q05320); assay: cell-based or functional assay
[2] = target: EBOV GP on pseudotyped lentivirus particles (EBOV , Mayinga), Q05320; assay: cell-based or functional assay
[3] = target: EBOV GP , coated on ELISA plates (EBOV , Mayinga) (UniProt Q05320)
[4] = target: EBOV GP , coated on ELISA plates (EBOV , Mayinga) (UniProt Q05320); remark: listed apart in the source

Row | Molecule | maximum inhibition of input pseudovirus [2] [%] | EC50 [4] [µg/mL] | other results
1 | 13C6 monoclonal antibody | – | – | neutralization of pseudovirus at 10 µg/mL [1]: < 20%
2 | KZ52 monoclonal antibody | – | – | maximum inhibition of input pseudovirus [1]: 80% and 90%
3 | B1 | 100 | – | –
4 | B2 | 100 | > 1 | Abs 450 [3]: 3.17 A450 and 1.72 A450
5 | B3 | – | – | Abs 450 [3]: 3.37 A450 and 2.97 A450
6 | B4 | 100 | 0.07 | maximal binding, higher than the other mAbs [4]: 100%
7 | B5 | 100 | 0.26 | –
